Test results from the Immune Epitope Database (IEDB).

How the values were obtained:
HLA-A*30:01 = test: IEDB peptide-MHC binding, purified MHC/competitive/radioactivity; filed as Kd, often an IC50 or EC50 that approximates it; ≥ and ≤ were set here for values at or beyond the usual limits of such assays
HLA-A*01:01 = test: as above
HLA-A*23:01 = test: as above
HLA-A*24:02 = test: as above
HLA-A*26:01 = test: as above
HLA-A*29:02 = test: as above
HLA-A*30:02 = test: as above
HLA-A*02:01 = test: IEDB peptide-MHC binding, purified MHC/competitive/fluorescence; filed as Kd, often an IC50 or EC50 that approximates it; ≥ and ≤ were set here for values at or beyond the usual limits of such assays
HLA-B*51:01 = test: IEDB peptide-MHC binding, purified MHC/competitive/radioactivity; filed as Kd, often an IC50 or EC50 that approximates it; ≥ and ≤ were set here for values at or beyond the usual limits of such assays
HLA-A*32:01 = test: as above; details: source organism: Vaccinia virus WR
HLA-B*07:02 = test: as above
HLA-B*35:01 = test: as above
HLA-B*53:01 = test: as above
HLA-B*08:01 = test: as above; details: source organism: Vaccinia virus WR
HLA-A*03:01 = test: as above; details: source organism: Mammarenavirus whitewaterense
HLA-A*31:01 = test: as above; details: source organism: Mammarenavirus whitewaterense
HLA-A*33:01 = test: as above; details: source organism: Mammarenavirus whitewaterense
HLA-A*68:01 = test: as above; details: source organism: Mammarenavirus whitewaterense
[1] = source organism: Vaccinia virus WR
[2] = source organism: Dengue virus 4 Philippines/H241/1956
[3] = source organism: SARS coronavirus Tor2
[4] = source organism: Dengue virus 3 Martinique/1243/1999
[5] = source organism: Dengue virus 1 Brazil/97-11/1997
[6] = source organism: Mammarenavirus juninense

**Q.** For ISRFANLIK, which Kd (HLA-A*30:01; [1]) is on record?
**A.** 13.4 nM

**Q.** For STRVPNYNL, which Kd (HLA-A*30:01; [2]) is on record?
**A.** 6.26 nM

**Q.** FNAPALQEAY was tested. Which Kd (HLA-A*01:01; [3]) did it give?
**A.** 284 nM

**Q.** What about the Kd (HLA-A*23:01; [3]) of the same sequence?
**A.** ≥ 70000 nM

**Q.** What about the Kd (HLA-A*24:02; [3]) of the same sequence?
**A.** ≥ 70300 nM

**Q.** And the Kd (HLA-A*26:01; [3])?
**A.** 526 nM

**Q.** What about the Kd (HLA-A*29:02; [3]) of the same sequence?
**A.** 26.1 nM

**Q.** What about the Kd (HLA-A*30:02; [3]) of the same sequence?
**A.** 336 nM

**Q.** ALSSDGDTV was tested. Which Kd (HLA-A*02:01; source organism: Vaccinia virus Tian Tan) did it give?
**A.** 9.6 nM

**Q.** What does the source list for STRDGEPLM?
**A.** Kd (HLA-A*26:01; [2]): 8190 nM; Kd (HLA-A*30:01; [2]): 71.6 nM

**Q.** Which Kd (HLA-B*51:01; [4]) does the source give for LPPEKCDTL here?
**A.** 7730 nM

**Q.** LTNEIYASI was tested. Which Kd (HLA-A*32:01) did it give?
**A.** 12.9 nM

**Q.** For HPGFTVIAL, which Kd (HLA-B*07:02; [5]) is on record?
**A.** 3.14 nM

**Q.** What about the Kd (HLA-B*35:01; [5]) of the same sequence?
**A.** 1.54 nM

**Q.** And the Kd (HLA-B*53:01; [5])?
**A.** 29.4 nM

**Q.** With YPLAIPVTM as the sequence, how does the Kd (HLA-B*07:02; [2]) read?
**A.** 44.6 nM

**Q.** And the Kd (HLA-B*35:01; [2])?
**A.** 1.93 nM

**Q.** What about the Kd (HLA-B*51:01; [2]) of the same sequence?
**A.** 38.7 nM

**Q.** What about the Kd (HLA-B*53:01; [2]) of the same sequence?
**A.** 3.47 nM

**Q.** Which Kd (HLA-A*30:01; [1]) does the source give for MQRIISLSV here?
**A.** 8.81 nM

**Q.** Which Kd (HLA-A*01:01; [3]) does the source give for TEETFKLSY here?
**A.** 7910 nM

**Q.** And the Kd (HLA-A*23:01; [3])?
**A.** ≥ 62800 nM

**Q.** What about the Kd (HLA-A*24:02; [3]) of the same sequence?
**A.** ≥ 30200 nM

**Q.** What about the Kd (HLA-A*26:01; [3]) of the same sequence?
**A.** 15300 nM

**Q.** What about the Kd (HLA-A*29:02; [3]) of the same sequence?
**A.** 141 nM

**Q.** What about the Kd (HLA-A*30:02; [3]) of the same sequence?
**A.** 3600 nM

**Q.** VGEEFFHQY was tested. Which Kd (HLA-A*01:01; [6]) did it give?
**A.** 3340 nM

**Q.** What about the Kd (HLA-A*23:01; [6]) of the same sequence?
**A.** 251 nM

**Q.** What about the Kd (HLA-A*24:02; [6]) of the same sequence?
**A.** 1620 nM

**Q.** And the Kd (HLA-A*26:01; [6])?
**A.** ≥ 77900 nM

**Q.** And the Kd (HLA-A*29:02; [6])?
**A.** 2380 nM

**Q.** What about the Kd (HLA-A*30:02; [6]) of the same sequence?
**A.** 6.74 nM

**Q.** How did the Kd (HLA-A*30:01; [4]) turn out when ATFKIQPFL was run?
**A.** 361 nM

**Q.** IIFFIVLIL was tested. Which Kd (HLA-A*32:01) did it give?
**A.** 12.2 nM

**Q.** How did the Kd (HLA-B*07:02; [5]) turn out when DPRRCLKPV was run?
**A.** 225 nM

**Q.** TLKQRLTNL was tested. Which Kd (HLA-A*02:01; [1]) did it give?
**A.** 1390 nM

**Q.** And the Kd (HLA-B*08:01)?
**A.** 1.74 nM

**Q.** Which results are given for SSIIRSLPK?
**A.** Kd (HLA-A*03:01): 39 nM; Kd (HLA-A*30:01; source organism: Mammarenavirus whitewaterense): 180 nM; Kd (HLA-A*31:01): 1720 nM; Kd (HLA-A*33:01): ≥ 39400 nM; Kd (HLA-A*68:01): 223 nM
